From publication PMC1133794

Biological target: MyoD (UniProt P10085 1-318)
Assay: EMSA

Chain of MyoD (P10085 whole entry): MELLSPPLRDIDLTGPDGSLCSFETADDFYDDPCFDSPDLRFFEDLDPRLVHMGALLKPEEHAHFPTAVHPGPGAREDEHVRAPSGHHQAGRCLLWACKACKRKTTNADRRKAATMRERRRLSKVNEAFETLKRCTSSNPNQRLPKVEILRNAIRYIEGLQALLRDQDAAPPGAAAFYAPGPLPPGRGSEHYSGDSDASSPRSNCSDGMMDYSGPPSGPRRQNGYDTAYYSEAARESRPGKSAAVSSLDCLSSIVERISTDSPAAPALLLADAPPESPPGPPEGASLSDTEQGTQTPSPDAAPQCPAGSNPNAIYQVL

B1: G'2 bimolecular tetraplex integrin 26/integrin 29 (structured_DNA)
DNA 1: CATGGGGGCGGGAAGGGGCGGGGTCT
DNA 2: AAAGGTGGGGCGGCAGGGCGCAAGGCAAT
B1: binds.
